Five molecules from US20260242735A1 (UNIVERSIT T BASEL, published 2026) can be followed below.

Experiment [1] addresses human CD33 S131K (human, UniProt P20138 18-364). As to the kind of experiment: flow cytometry, transfected cells.
Experiment [2] addresses human CD33 S131M (human, UniProt P20138 18-364). As to the kind of experiment: flow cytometry, transfected cells.
Experiment [3] addresses human CD33 P132F (human, UniProt P20138 18-364). As to the kind of experiment: flow cytometry, transfected cells. In general terms: In flow cytometry, cells or beads pass a laser one at a time.
Experiment [4] concerns the target human CD33 P132K (human, UniProt P20138 18-364). Description: flow cytometry, transfected cells.
Experiment [5] has as its target human CD33 P132Y (human, UniProt P20138 18-364). As to the kind of experiment: flow cytometry, transfected cells.
The target in experiment [6] is human CD33 W22Y (human, UniProt P20138 18-364). Description: flow cytometry, transfected cells.
human CD33 W22Y, sequence (P20138 18-364 W22Y limits assumed): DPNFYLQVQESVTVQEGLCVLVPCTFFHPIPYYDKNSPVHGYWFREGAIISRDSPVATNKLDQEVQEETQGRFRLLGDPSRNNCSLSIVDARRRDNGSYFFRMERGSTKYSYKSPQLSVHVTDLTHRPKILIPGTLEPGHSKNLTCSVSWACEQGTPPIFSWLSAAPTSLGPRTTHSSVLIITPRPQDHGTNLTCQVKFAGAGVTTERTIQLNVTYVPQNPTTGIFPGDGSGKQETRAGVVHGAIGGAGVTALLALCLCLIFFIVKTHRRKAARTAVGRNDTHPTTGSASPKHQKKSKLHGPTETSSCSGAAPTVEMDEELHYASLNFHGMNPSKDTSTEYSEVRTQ
The target in experiment [7] is human CD33 P132S (human, UniProt P20138 18-364). Description: flow cytometry, transfected cells.
human CD33 P132S, sequence (P20138 18-364 P132S limits assumed): as the sequence (P20138 18-364 W22Y limits assumed) above, with Y5W, P115S counted along it
Experiment [8] concerns the target human CD33 S131F (human, UniProt P20138 18-364). Description: flow cytometry, transfected cells.
Experiment [9] concerns the target human CD33 C212A (human, UniProt P20138 18-364). Description: alanine scan, flow cytometry.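 Also: HEK293-T cells transiently expressing single-residue alanine mutants of CD33 (alanine swapped to serine), antibody binding read by fluorescence in duplicate, background-subtracted, expressed relative to wild-type CD33.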
For experiment [10], the target named is human CD33 K52L (human, UniProt P20138 18-364). Description: flow cytometry, transfected cells.
human CD33 K52L, sequence (P20138 18-364 K52L limits assumed): as the sequence (P20138 18-364 W22Y limits assumed) above, with Y5W, K35L counted along it
The target of experiment [11] is human CD33 K52I (human, UniProt P20138 18-364). As to the kind of experiment: flow cytometry, transfected cells.
human CD33 K52I, sequence (P20138 18-364 K52I limits assumed): as the sequence (P20138 18-364 W22Y limits assumed) above, with Y5W, K35I counted along it
Experiment [12] has as its target human CD33 Y49G (human, UniProt P20138 18-364). Description: flow cytometry, transfected cells.
The target of experiment [13] is human CD33 K52S (human, UniProt P20138 18-364). Description: flow cytometry, transfected cells.
human CD33 K52S, sequence (P20138 18-364 K52S limits assumed): as the sequence (P20138 18-364 W22Y limits assumed) above, with Y5W, K35S counted along it
Experiment [14] addresses human CD33 Y49L (human, UniProt P20138 18-364). Description: flow cytometry, transfected cells.
Experiment [15] deals with human CD33 Y49Q (human, UniProt P20138 18-364). Description: flow cytometry, transfected cells.
human CD33 Y49Q, sequence (P20138 18-364 Y49Q limits assumed): as the sequence (P20138 18-364 W22Y limits assumed) above, with Y5W, Y32Q counted along it
Experiment [16] concerns the target human CD33 K52G (human, UniProt P20138 18-364). As to the kind of experiment: flow cytometry, transfected cells.
The target in experiment [17] is human CD33 Y49H (human, UniProt P20138 18-364). Description: flow cytometry, transfected cells.
human CD33 Y49H, sequence (P20138 18-364 Y49H limits assumed): as the sequence (P20138 18-364 W22Y limits assumed) above, with Y5W, Y32H counted along it
In experiment [18] the target is human CD33 P48L (human, UniProt P20138 18-364). Description: flow cytometry, transfected cells.
human CD33 P48L, sequence (P20138 18-364 P48L limits assumed): as the sequence (P20138 18-364 W22Y limits assumed) above, with Y5W, P31L counted along it
The target in experiment [19] is human CD33 P48M (human, UniProt P20138 18-364). Description: flow cytometry, transfected cells.
human CD33 P48M, sequence (P20138 18-364 P48M limits assumed): as the sequence (P20138 18-364 W22Y limits assumed) above, with Y5W, P31M counted along it
The target in experiment [20] is human CD33 N20S (human, UniProt P20138 18-364). Description: flow cytometry, transfected cells.
human CD33 N20S, sequence (P20138 18-364 N20S limits assumed): as the sequence (P20138 18-364 W22Y limits assumed) above, with N3S, Y5W counted along it
Experiment [21] concerns the target human CD33 Q24T (human, UniProt P20138 18-364). As to the kind of experiment: flow cytometry, transfected cells.
In experiment [22] the target is human CD33 Q24S (human, UniProt P20138 18-364). As to the kind of experiment: flow cytometry, transfected cells.
human CD33 Q24S, sequence (P20138 18-364 Q24S limits assumed): as the sequence (P20138 18-364 W22Y limits assumed) above, with Y5W, Q7S counted along it
Experiment [23] concerns the target human CD33 F44D (human, UniProt P20138 18-364). As to the kind of experiment: flow cytometry, transfected cells.
Experiment [24] has as its target human CD33 H45Y (human, UniProt P20138 18-364). As to the kind of experiment: flow cytometry, transfected cells.
Experiment [25] addresses human CD33 Q24E (human, UniProt P20138 18-364). Description: flow cytometry, transfected cells.
In experiment [26] the target is human CD33 D18R (human, UniProt P20138 19-364). As to the kind of experiment: flow cytometry, transfected cells.
human CD33 D18R, sequence (P20138 18-364 D18R limits assumed): as the sequence (P20138 18-364 W22Y limits assumed) above, with D1R, Y5W counted along it

human CD33 Q24E, sequence (P20138 18-364 Q24E limits assumed): as the sequence (P20138 18-364 W22Y limits assumed) above, with Y5W, Q7E counted along it
human CD33 Y49L, sequence (P20138 18-364 Y49L limits assumed): as the sequence (P20138 18-364 W22Y limits assumed) above, with Y5W, Y32L counted along it
human CD33 Y49G, sequence (P20138 18-364 Y49G limits assumed): as the sequence (P20138 18-364 W22Y limits assumed) above, with Y5W, Y32G counted along it
human CD33 P132F, sequence (P20138 18-364 P132F limits assumed): as the sequence (P20138 18-364 W22Y limits assumed) above, with Y5W, P115F counted along it
human CD33 H45Y, sequence (P20138 18-364 H45Y limits assumed): as the sequence (P20138 18-364 W22Y limits assumed) above, with Y5W, H28Y counted along it
human CD33 S131K, sequence (P20138 18-364 S131K limits assumed): as the sequence (P20138 18-364 W22Y limits assumed) above, with Y5W, S114K counted along it
human CD33 Q24T, sequence (P20138 18-364 Q24T limits assumed): as the sequence (P20138 18-364 W22Y limits assumed) above, with Y5W, Q7T counted along it
human CD33 S131F, sequence (P20138 18-364 S131F limits assumed): as the sequence (P20138 18-364 W22Y limits assumed) above, with Y5W, S114F counted along it
human CD33 P132Y, sequence (P20138 18-364 P132Y limits assumed): as the sequence (P20138 18-364 W22Y limits assumed) above, with Y5W, P115Y counted along it
human CD33 P132K, sequence (P20138 18-364 P132K limits assumed): as the sequence (P20138 18-364 W22Y limits assumed) above, with Y5W, P115K counted along it
human CD33 F44D, sequence (P20138 18-364 F44D limits assumed): as the sequence (P20138 18-364 W22Y limits assumed) above, with Y5W, F27D counted along it
human CD33 C212A, sequence (P20138 18-364 C212A limits assumed): as the sequence (P20138 18-364 W22Y limits assumed) above, with Y5W, C195A counted along it
human CD33 S131M, sequence (P20138 18-364 S131M limits assumed): as the sequence (P20138 18-364 W22Y limits assumed) above, with Y5W, S114M counted along it
human CD33 K52G, sequence (P20138 18-364 K52G limits assumed): as the sequence (P20138 18-364 W22Y limits assumed) above, with Y5W, K35G counted along it

B1: Refmab #6 (antibody, human IgG1, V domains shown)
VH: QVQLQQPGAEVVKPGASVKMSCKASGYTFTSYYIHWIKQTPGQGLEWVGVIYPGNDDISYNQKFQGKATLTADKSSTTAYMQLSSLTSEDSAVYYCAREVRLRYFDVWGQGTTVTVSS
VL: EIVLTQSPGSLAVSPGERVTMSCKSSQSVFFSSSQKNYLAWYQQIPGQSPRLLIYWASTRESGVPDRFTGSGSGTDFTLTISSVQPEDLAIYYCHQYLSSRTFGQGTKLEIK
In the case of B1, the binding result in [1], in experiment [2], in experiment [3], in experiment [4], in [5] and in [6] was “no binding (tested: below 20%)” each time. Also, the binding result in experiment [7] and in experiment [8] was “no binding (tested: below 20%)” in each case.

B2: Refmab #5 (antibody, V domains shown)
VH: QVQLVQSGAEVKKPGASVKVSCKASGYTFTNYDINWVRQAPGQGLEWIGWIYPGDGSTKYNEKFKAKATLTADTSTSTAYMELRSLRSDDTAVYYCASGYEDAMDYWGQGTTVTVSS
VL: DIQMTQSPSSLSASVGDRVTINCKASQDINSYLSWFQQKPGKAPKTLIYRANRLVDGVPSRFSGSGSGQDYTLTISSLQPEDFATYYCLQYDEFPLTFGGGTKVEIK
notes: Full-length format is human IgG1 Fc silent (PG-LALA); also made as Fab; The alanine scan used IgG or Fab
As to B2, the “Mean % WT Binding” value in [9] came to 28.4 % WT binding.

B3: Refmab #5 (antibody, human IgG1, V domains shown)
VH: QVQLVQSGAEVKKPGASVKVSCKASGYTFTNYDINWVRQAPGQGLEWIGWIYPGDGSTKYNEKFKAKATLTADTSTSTAYMELRSLRSDDTAVYYCASGYEDAMDYWGQGTTVTVSS
VL: DIQMTQSPSSLSASVGDRVTINCKASQDINSYLSWFQQKPGKAPKTLIYRANRLVDGVPSRFSGSGSGQDYTLTISSLQPEDFATYYCLQYDEFPLTFGGGTKVEIK
In the case of B3, the binding result in experiment [10], in experiment [11], in experiment [12], in experiment [13], in [14] and in [15] was “no binding (tested: below 20%)” in each case. Besides, the binding result in [16] and in experiment [17] was “no binding (tested: below 20%)” in each case.

B4: Refmab #4 (antibody, human IgG1, V domains shown)
VH: QVQLVQSGAEVKKPGESVKVSCKASGYTFTNYGMNWVKQAPGQGLEWMGWINTYTGEPTYADKFQGRVTMTTDTSTSTAYMEIRNLGGDDTAVYYCARWSWSDGYYVYFDYWGQGTSVTVSS
VL: DIVMTQSPDSLTVSLGERTTINCKSSQSVLDSSTNKNSLAWYQQKPGQPPKLLLSWASTRESGIPDRFSGSGSGTDFTLTIDSPQPEDSATYYCQQSAHFPITFGQGTRLEIK
As to B4, the binding result in [18] and in [19] was “no binding (tested: below 20%)” each time.

B5: Refmab #3 (antibody, human IgG1, V domains shown)
VH: QVQLVQSGAEVKKPGSSVKVSCKASGYTFTDYNMHWVRQAPGQGLEWIGYIYPYNGGTGYNQKFKSKATITADESTNTAYMELSSLRSEDTAVYYCARGRPAMDYWGQGTLVTVSS
VL: DIQMTQSPSSLSASVGDRVTITCRASESVDNYGISFMNWFQQKPGKAPKLLIYAASNQGSGVPSRFSGSGSGTDFTLTISSLQPDDFATYYCQQSKEVPWTFGQGTKVEIK
Take B5: the binding result in experiment [20], in experiment [21], in [22], in experiment [23], in [24] and in experiment [25] was “no binding (tested: below 20%)” each time. For the same molecule, the binding result in experiment [26] is listed as “no binding (tested: below 20%)”.
